From paper PMC6561018, “Structure and Properties of a Natural Competence-Associated Pilin Suggest a Unique Pilus Tip-Associated DNA Receptor” (mBio, 2019)

T1: ComZ (residues 31 to 554), Thermus thermophilus HB27 (Thermus thermophilus HB27, UniProt Q8KPZ1 31-554)
T1 construct: Cloned into pET-22b (NcoI/XhoI); also called recombinant ComZ fragment; comZ-22b construct; source: E. coli T7 Express, purified (HisTrap HP, SEC); not shown: His6, C-terminal, kept
T1 sequence (looked up): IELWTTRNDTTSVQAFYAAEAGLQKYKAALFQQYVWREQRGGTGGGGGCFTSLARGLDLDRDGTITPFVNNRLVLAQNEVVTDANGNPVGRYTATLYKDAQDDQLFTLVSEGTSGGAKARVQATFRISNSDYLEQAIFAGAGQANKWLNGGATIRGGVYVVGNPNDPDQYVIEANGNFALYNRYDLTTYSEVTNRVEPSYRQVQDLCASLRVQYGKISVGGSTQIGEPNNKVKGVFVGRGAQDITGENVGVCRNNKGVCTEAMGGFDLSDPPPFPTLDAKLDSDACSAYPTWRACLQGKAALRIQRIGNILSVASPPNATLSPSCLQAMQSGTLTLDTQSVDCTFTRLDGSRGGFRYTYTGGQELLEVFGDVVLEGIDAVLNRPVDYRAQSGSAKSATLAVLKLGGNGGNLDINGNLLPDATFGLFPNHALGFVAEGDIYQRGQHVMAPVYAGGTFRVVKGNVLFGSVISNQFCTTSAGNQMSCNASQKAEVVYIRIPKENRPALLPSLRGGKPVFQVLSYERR


What was measured:
[1] = target: T1, ComZ (residues 31 to 554), Thermus …; assay: ITC; MicroCal PEAQ-ITC; 20 aliquots of 2 μl PilA2 (314 μM) titrated into 300 μl ComZ (33 μM), 25°C; fitted assuming a single binding site; conditions: both partners purified
[2] = target: the molecule itself; assay: SEC; HiLoad 16/600 Superdex 200 PG, 1 ml/min, 25 mM Tris-HCl pH 8.0, 200 mM NaCl, 5% glycerol; proteins incubated together at 4°C for 30 min before the run; each protein also run alone; peaks checked by SDS-PAGE

Binder	Kd [1] [nM]	dH [1] [kcal/mol]	stoichiometry N [1]	binding result [2]
PilA2 soluble domain (residues 33 to 193), Thermus thermophilus HB27 (domain or fragment, UniProt Q72JC3 33-193, looked up, Synthetic gene (GeneArt), codon-optimised for E. coli, in pET-22b (BamHI/XhoI); also called recombinant PilA2; source: E. coli Lemo21(DE3), purified (StrepTrap HP, SEC); not shown: Strep-tag II, C-terminal, kept) RASAQARFATDAKAAAVQVLERRSAEVLKSEIVPALSPYKDAPLDPDNPSGNWRSFYFVDYYFSCPTRVAPSPKQRGGSVANLRPGLTCSGTETIFGIPVAWDIRGENGILGEGVVTVVVTATHPRGPKVTLGRRVTCYDVYPSPTQDQPAPCPPPGGGRP	690	2.3	1.1	–
PilA3 soluble domain (residues 33 to 233), Thermus thermophilus HB27 (domain or fragment, UniProt Q72JC2 33-233, looked up, Synthetic gene (GeneArt), codon-optimised for E. coli, in pET-22b (BamHI/XhoI); source: E. coli Lemo21(DE3), purified (StrepTrap HP, SEC); not shown: Strep-tag II, C-terminal, kept) ELARNTQARSELQDRVRMVMQVVTADLQMAGARYWNSGNQNQAFSLPLPPLSGSNMGPKDTLTLYYVTSLRDLASACRRVDYGFEGDTLRRSDVNATPSSGSDCTTPPPNSQPLAEGMLALDIQYQCSDGSRKDTPDCGTDAYPRSAKVTVAGYSLTSVTNPGPASLTTVTGKTLACPQGRACYALTQEVLMPNLKPLPTP	–	–	–	binds
